# Patent US20240293576A1
# Legend:
# [1] = target: HIV virus pAD-8 (HIV-1); assay: cell-based or functional assay
# [2] = target: HIV virus pNL4-3 (HIV-1); assay: cell-based or functional assay
Substance,"AD-8 RLU (TZMbl luciferase, neutralisation by supernatant) [1] [RLU]","pNL4-3 RLU (TZMbl luciferase, neutralisation by supernatant) [2] [RLU]"
anti-HIV broad-spectrum neutralizing antibody 10E8V4-5R+100cF,976000,121000
anti-HIV broad-spectrum neutralizing antibody PGT128,147000,474000
